Tested on: bovine 19S complex (PA700)

## USP14-ΔUBL (91-494) (purified recombinant, activation assay)
  activity toward UbVS (anti-ubiquitin immunoblot): showed extremely low activity toward UbYS, both in the absence and presence of the 19S regulatory particle
